14 molecules from patent publication US20250326839A1 (VIGIL NEUROSCIENCE, published 2025) can be followed below.

In experiment [1] the target is T1, human TREM2 (human, UniProt Q9NZC2 19-174, limits assumed).
T1 construct: also called triggering receptor expressed on myeloid cells 2
T1 sequence: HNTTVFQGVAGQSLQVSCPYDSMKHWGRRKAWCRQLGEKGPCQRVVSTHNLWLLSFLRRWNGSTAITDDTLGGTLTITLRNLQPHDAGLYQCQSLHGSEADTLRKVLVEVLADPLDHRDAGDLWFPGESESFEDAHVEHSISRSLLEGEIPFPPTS
Nature of the experiment: 2nd screen, 100 nM.

The target of experiment [2] is T1, human TREM2. Briefly: 1st screen, 110 nM Ab.

B1: V6 (antibody, V domains shown)
VH: EVQLVQSGAEVKKPGESLKISCKGSGYSFTSMWIAWVRQMPGKGLEWMGIIYPGDSDTRYSPSFQGQVTISADKSISTAYLQWSSLKASDTAMYFCARQRTFYYDSSDYFDYWGQGTLVTVSS
VL: DIQMTQSPSSVSASVGDRVTITCRASQGISSWLAWYQQKPGKAPKLLIYAASSLQNGVPSRFSGSGSGTDFTLTISSLQPEDFATYFCQQADSFPRTFGQGTKLEIK
notes: also called 6E7 variant V6
Turning to B1, the results for the “Binding Signal” value with human TREM2 [1] and in the experiment with human TREM2 [2] were 0.56 fold over 6E7 parental antibody and 0.2 fold over 6E7 parental antibody, respectively.

B2: V10 (antibody, V domains shown)
VH: EVQLVQSGAEVKKPGESLKISCKGSGYSFTSYWIAWVRQMPGKGLEWMGIIYPGDSDTRYSPSFQGQVTISADKSISTAYLQWSSLKASDTAMYFCARQRTFYYDSSDYFDYWGQGTLVTVSS
VL: DIQMTQSPSSVSASVGDRVTITCRASQGISSWLAWYQQKPGKAPKLLIYSASSLQNGVPSRFSGSGSGTDFTLTISSLQPEDFATYFCQQADSFPRTFGQGTKLEIK
notes: also called 6E7 variant V10; LV-201/HV-15
In the case of B2, the “Binding Signal” value with human TREM2 [1] is 0.7 fold over 6E7 parental antibody; with human TREM2 [2], 0.76 fold over 6E7 parental antibody.

B3: V8 (antibody, V domains shown)
VH: EVQLVQSGAEVKKPGESLKISCKGSGYSFTSYWIAWVRQMPGKGLEWMGIIYPGDSDTKYSPSFQGQVTISADKSISTAYLQWSSLKASDTAMYFCARQRTFYYDSSDYFDYWGQGTLVTVSS
VL: DIQMTQSPSSVSASVGDRVTITCRASQGISSWLAWYQQKPGKAPKLLIYAASSLQNGVPSRFSGSGSGTDFTLTISSLQPEDFATYFCQQADSFPRTFGQGTKLEIK
notes: also called 6E7 variant V8
B3: the “Binding Signal” value with human TREM2 [1] was 0.77 fold over 6E7 parental antibody; in the experiment with human TREM2 [2] it was 0.28 fold over 6E7 parental antibody.

B4: V18 (antibody, V domains shown)
VH: EVQLVQSGAEVKKPGESLKISCKGSGYSFTSYHIAWVRQMPGKGLEWMGIIYPGDSDTRYSPSFQGQVTISADKSISTAYLQWSSLKASDTAMYFCARQRTFYYDSSDYFDYWGQGTLVTVSS
VL: DIQMTQSPSSVSASVGDRVTITCRASQGISSWLAWYQQKPGKAPKLLIYAASSLQNGVPSRFSGSGSGTDFTLTISSLQPEDFATYFCQQADSFPRTFGQGTKLEIK
notes: also called 6E7 variant V18
Consider B4, for which the “Binding Signal” value is 0.42 fold over 6E7 parental antibody in the experiment with human TREM2 [1] and 0.17 fold over 6E7 parental antibody in the experiment with human TREM2 [2].

B5: V23 (antibody, V domains shown)
VH: EVQLVQSGAEVKKPGESLKISCKGSGYSFTSYWIAWVRQMPGKGLEWMGIIYPGDSDTRYSPSFQGQVTISADKSISTAYLQWSSLKASDTAMYFCARQRTFYYDSSDYFDYWGQGTLVTVSS
VL: DIQMTQSPSSVSASVGDRVTITCRASQGISSWLAWYQQKPGKAPKLLIYAASSLQNGVPSRFSGSGSGTDFTLTISSLQPEDFATYFCQQADSFPLTFGQGTKLEIK
notes: also called 6E7 variant V23; LV-202/HV-15
Turning to B5, the “Binding Signal” value in the experiment with human TREM2 [1] and in the experiment with human TREM2 [2] was 0.4 fold over 6E7 parental antibody in each case.

B6: V20 (antibody, V domains shown)
VH: EVQLVQSGAEVKKPGESLKISCKGSGYSFTSYWIAWVRQMPGKGLEWMGRIYPGDSDTRYSPSFQGQVTISADKSISTAYLQWSSLKASDTAMYFCARQRTFYYDSSDYFDYWGQGTLVTVSS
VL: DIQMTQSPSSVSASVGDRVTITCRASQGISSWLAWYQQKPGKAPKLLIYAASSLQNGVPSRFSGSGSGTDFTLTISSLQPEDFATYFCQQADSFPRTFGQGTKLEIK
notes: also called 6E7 variant V20
Turning to B6, the “Binding Signal” value with human TREM2 [1] is 0.52 fold over 6E7 parental antibody; in the experiment with human TREM2 [2] it was 0.18 fold over 6E7 parental antibody.

B7: V31 (antibody, V domains shown)
VH: EVQLVQSGAEVKKPGESLKISCKGSGYSFTSYWIAWVRQMPGKGLEWMGIIYPGDSETRYSPSFQGQVTISADKSISTAYLQWSSLKASDTAMYFCARQRTFYYDSSDYFDYWGQGTLVTVSS
VL: DIQMTQSPSSVSASVGDRVTITCRASQGISSWLAWYQQKPGKAPKLLIYAASSLQNGVPSRFSGSGSGTDFTLTISSLQPEDFATYFCQQADSFPRTFGQGTKLEIK
notes: also called 6E7 variant V31
With B7, the “Binding Signal” value with human TREM2 [1] was 0.73 fold over 6E7 parental antibody; with human TREM2 [2] it was 0.61 fold over 6E7 parental antibody.

B8: V7 (antibody, V domains shown)
VH: EVQLVQSGAEVKKPGESLKISCKGSGYSFTSEWIAWVRQMPGKGLEWMGIIYPGDSDTRYSPSFQGQVTISADKSISTAYLQWSSLKASDTAMYFCARQRTFYYDSSDYFDYWGQGTLVTVSS
VL: DIQMTQSPSSVSASVGDRVTITCRASQGISSWLAWYQQKPGKAPKLLIYAASSLQNGVPSRFSGSGSGTDFTLTISSLQPEDFATYFCQQADSFPRTFGQGTKLEIK
notes: also called 6E7 variant V7
For the molecule B8, the “Binding Signal” value with human TREM2 [1] is 0.32 fold over 6E7 parental antibody; in the experiment with human TREM2 [2], 0.11 fold over 6E7 parental antibody.

B9: V22 (antibody, V domains shown)
VH: EVQLVQSGAEVKKPGESLKISCKGSGYSFTSYWIAWVRQMPGKGLEWMGIIYPGDSDTRYSPSFQGQVTISADKSISTAYLQWSSLKASDTAMYFCARQRTFYYDSSDYFDYWGQGTLVTVSS
VL: DIQMTQSPSSVSASVGDRVTITCRASQGISSWLAWYQQKPGKAPKLLIYRASSLQNGVPSRFSGSGSGTDFTLTISSLQPEDFATYFCQQADSFPRTFGQGTKLEIK
notes: also called 6E7 variant V22
In the case of B9, the “Binding Signal” value in the experiment with human TREM2 [1] was 0.71 fold over 6E7 parental antibody; in the experiment with human TREM2 [2] it was 0.3 fold over 6E7 parental antibody.

B10: V19 (antibody, V domains shown)
VH: EVQLVQSGAEVKKPGESLKISCKGSGYSFTSSWIAWVRQMPGKGLEWMGIIYPGDSDTRYSPSFQGQVTISADKSISTAYLQWSSLKASDTAMYFCARQRTFYYDSSDYFDYWGQGTLVTVSS
VL: DIQMTQSPSSVSASVGDRVTITCRASQGISSWLAWYQQKPGKAPKLLIYAASSLQNGVPSRFSGSGSGTDFTLTISSLQPEDFATYFCQQADSFPRTFGQGTKLEIK
notes: also called 6E7 variant V19
As to B10, the “Binding Signal” value with human TREM2 [1] is 0.48 fold over 6E7 parental antibody; in the experiment with human TREM2 [2], 0.59 fold over 6E7 parental antibody.

B11: V11 (antibody, V domains shown)
VH: EVQLVQSGAEVKKPGESLKISCKGSGYSFTSYWIAWVRQMPGKGLEWMGIIYPGDSDTRYSPSFQGQVTISADKSISTAYLQWSSLKASDTAMYFCARQRTFYYDSSDYFDYWGQGTLVTVSS
VL: DIQMTQSPSSVSASVGDRVTITCRASQGISSWLAWYQQKPGKAPKLLIYAASSLQNGVPSRFSGSGSGTDFTLTISSLQPEDFATYFCQQAASFPRTFGQGTKLEIK
notes: also called 6E7 variant V11
Take B11: the “Binding Signal” value is 0.42 fold over 6E7 parental antibody in the experiment with human TREM2 [1] and 0.79 fold over 6E7 parental antibody with human TREM2 [2].

B12: V30 (antibody, V domains shown)
VH: EVQLVQSGAEVKKPGESLKISCKGSGSSFTSYWIAWVRQMPGKGLEWMGIIYPGDSDTRYSPSFQGQVTISADKSISTAYLQWSSLKASDTAMYFCARQRTFYYDSSDYFDYWGQGTLVTVSS
VL: DIQMTQSPSSVSASVGDRVTITCRASQGISSWLAWYQQKPGKAPKLLIYAASSLQNGVPSRFSGSGSGTDFTLTISSLQPEDFATYFCQQADSFPRTFGQGTKLEIK
notes: also called 6E7 variant V30; LV-16/HV-202
On to B12, for which the “Binding Signal” value with human TREM2 [1] was 0.72 fold over 6E7 parental antibody; with human TREM2 [2] it was 0.79 fold over 6E7 parental antibody.

B13: V9 (antibody, V domains shown)
VH: EVQLVQSGAEVKKPGESLKISCKGSGYSFTSYWIAWVRQMPGKGLEWMGIIYPGDSDTRYSPSFQGQVTISADKSISTAYLQWSSLKASDTAMYFCARQRGFYYDSSDYFDYWGQGTLVTVSS
VL: DIQMTQSPSSVSASVGDRVTITCRASQGISSWLAWYQQKPGKAPKLLIYAASSLQNGVPSRFSGSGSGTDFTLTISSLQPEDFATYFCQQADSFPRTFGQGTKLEIK
notes: also called 6E7 variant V9; LV-16/HV-201
With B13, the “Binding Signal” value with human TREM2 [1] was 0.54 fold over 6E7 parental antibody; in the experiment with human TREM2 [2], 0.67 fold over 6E7 parental antibody.

B14: V21 (antibody, V domains shown)
VH: EVQLVQSGAEVKKPGESLKISCKGSGYSFTSYWIAWVRQMPGKGLEWMGIIYPGDSDTRYSPSFQGQVTISADKSISTAYLQWSSLKASDTAMYFCARQRTFYYDSSDFFDYWGQGTLVTVSS
VL: DIQMTQSPSSVSASVGDRVTITCRASQGISSWLAWYQQKPGKAPKLLIYAASSLQNGVPSRFSGSGSGTDFTLTISSLQPEDFATYFCQQADSFPRTFGQGTKLEIK
notes: also called 6E7 variant V21
Regarding B14, the results for the “Binding Signal” value with human TREM2 [1] and with human TREM2 [2] were 0.68 fold over 6E7 parental antibody and 0.76 fold over 6E7 parental antibody, respectively.
